This note sets out measurements from the DeepSol protein solubility set.

This data set is described as follows: soluble on expression in E. coli; label from the status in PepcDB or PDB records.
“MVDYDKQMKTWIRSQHLICVGSDFIFETVDQTQLDKFETCIRGMGGRIRTVKAVGNWPMGPRRSFKILQATASVPRPGGEALVTYWAKKGSKTTRYSEISS”: the “soluble on expression in E. coli” value is recorded as “soluble”.
As for “MVESENKDIEESGAEVDRRDVRSLVRKLSDNNWEIPKGHIPNMRVPGRLFVSEKLLEGIEPGTIDQIANVATLPGIQKYSMAMPDAHLGYGFAIGGVAAFDVEEGVISPGGVGFDINCGVRLIRTNLQKEDVVPHIKRLTDELFSNVPSGVGSKSRFKASDKELDSAFLEGAKWAVDAGYGVEADVEHCEGNGFLEGADTSHVSSKARNRGKPQLGTLGSGNHFLEVQYVDEIYDPEVASAFGLEEGQVTVMVHCGSRGAGHQICTDHLKELSQAVKRYGIEIPDKQLACAPAQSKEAQNYFKAMLCAANYAWANRQMITHWTRESFEKIFGRDADDMEMSLLYDVAHNVAKLEEHSIEGRKKEVYVHRKGATRAFPAGHPEVPSAYRDVGQPVLIPGSMGTPSFILCGSTESMDVSFGSACHGAGRVMSRAHAKKEFHGQSIKEDLEAHGITVRATHPSVIAEEAPGVYKSSSEVVNVVHELGIARKVARVIPLGVAKGLEHHHHHH”, the entry is “not soluble”; as for “MVESTTTIYDVARVAGVSMATVSRVVNGNANVKEKTRQKVLEAIAELDYRPNAVARGLASKRTTTVGVILPTITSTYFAAITRGVDDIASMYKYNMILANSDNDVEKEEKVLETFLSKQVDGIVYMGSSLDEKIRTSLKNSRTPVVLVGTIDGDKEIPSVNIDYHLAAYQSTKKLIDSGNKKIAYIMGSLKDVENTERMVGYQEALLEANIEFDENLVFEGNYSYEQGKALAERLLERGATSAVVSHDTVAVGLLSAMMDKGVKVPEDFEIISGANSPITQYTYPTLTSVNQPLYDLGAVAMRLLTKLMLKEDVEQNQLVLDHEIFSRRSTK”, “soluble”; as for “MVEVLTLGVIQTTLDSTAAWNTDSGEPKISASEDSRAWYEIRRAMRALADHEDQPRIILLPELALPRTRLDDFERLVCSMNALAIVGVDYRLNHRTKSAKNEGLVLVPRNFWKRTPSRYAARVWFGKRDPAPAEASGFKEYMPPWAFHSDPNVYVFDAGPYGRIGVSICYDFMDIERALLYRGRVHHLFVIAYNRDVKLFESLAVSLSRTAFCNVVVCNTGYFGGSLVVSPYYEAFKRIGYSVDGGKVFTAQCVPLPVRDLDAAIHGFDTKPNATYKHLPPGFTTSMDHTAALPEGPSAVAIPLFTSDLEHHHHHH”, “not soluble”.
Under “MVFKIKDEWGEFLVRLARRAIEEYLKTGKEIEPPKDTPPELWEKMGVFVTLNRYNVPPQTALRGCIGFPTPIYPLVEATIKAAIYSAVDDPRFPPVKLEEMDNLVVEVSVLTPPELIEGPPEERPRKIKVGRDGLIVEKGIYSGLLLPQVPVEWGWDEEEFLAETCWKAGLPPDCWLDEDTKVYKFTAEIFEEEYPRGPIKRKPLVLEHHHHHH” stands “soluble”; under “MVFLDPIHRIDVVTLSELSRLGFRRSGDFVYRPECHLCRQCLSCRVPVADFQMNSMQKKAWKRNQDLTMTVLPTRQASQIHYDLYERYINERHADGDMFPPSLDQFEKFLVHSCTDSFFLELWKDNRLISVSTCDLMDDGLSAVYTFFDPDEHRRSLGVYSILNQIEYVKTLGLEYVYLGYWVPHSAKMNYKSQYTPLELLLDGQWRRLNRSLSPEEINQLGNSLMTTLPSEWNNLIIKLEHHHHHH”, “not soluble”; under “MVFVKTLHRTLFLEVAANEDVLSIKQKIEAAEGIPAEEQRLCYAGRQLEDSDCGIDSEATIYVNLELLGGAKKRKKKVYTTPKKNKRKPKKVKLAVLKYYKIDENGKITRLRKECQQPSCGGGVFMAQHANRHYCGRCHDTLVVDTATAAATSGEKGGKKGKK”, “not soluble”.
As for “MVGSLNCIVAVSQNMGIGKNGDLPWPPLRNEFRYFSRMTTTSSVEGKQNLVIMGKKTWFSIPEKFRPLKGRINLVLSRELKEPPQGAHFLSRSLDDALKLTEQPELANKVDMVWIVGGSSVYKEAMNHPGHLKLFVTRIMQDFESDTFFPEIDLEKYKLLPEYPGVLSDVQEEKGIKYKFEVYEKND”, the entry is “soluble”; as for “MVGVLFTFFAWCQRDRDVVGTPFVSIRGIFQADHRAWCENRRRELTKPDGWMSLIGLHWLGPKAHYIGSSPDNGIRLAMGPPDMGMIERDGDVVWFTPHAGVPLTVDGQPLRGRVRVFSDADLTPTTIGFDDGKGWLTLLRRGDRFALRVKHVNAPSRLHFTGLEYWPSDPEWRISARYLPNKAGATLSIFNIVGMTANVPNAGVIAFERLGHTYRLQAIRAAGQALFVMFADRTSGHGSYPAGRFLEVDAPDKQGSVVLDFNRAYNPPCAFTLFTTCLLPPSENRLNLAVTAGEKAYHVSTVLPLEHHHHHH”, “not soluble”.
“MVGVMSNSSALSREFVKIEIGGKVIKGNSKVENSGDYFDGHCPQAFHAFSGIDGTVFDLINLKLRVTKHIQDLLENFFKRGEKEVKIEILRRESTKSGSAYSSFKVVYQGCRMHNMLLAHDNDSNLILELSFTPEESVSIEMNIPSDDGKSTEKLGPMTYNLYKEALV”: the “soluble on expression in E. coli” value was “not soluble”.
Under “MVHHKLKNDPSGHDWFHIVRVRNLAVELAHKEGANTFICQMAALLHDIIDDKICQDSKQASYELTQWLYSQDLAIAEVEHILDILENISFKAGTGLTMKTLEGQIVQDADRLDAMGAIGIARTMAYSGSKGRLIHDPNLKPRENLTLEEYRNGQDTAIIHFYEKLLKLKDLMNTKQGKMLAQKRHDFLELYLAEFYAEWNGKRLEHHHHHH” stands “not soluble”.
As for “MVHSTDSFDFLGWNFVVKPNGKFISTPSQKATSSIKAKVKEVMKDSCFTLEERIDKCGAIVRGWRNYHRFCDMSQHNLWAIAYWTWKFIRKQGRYNRDQTNQVIHRAFPAVKWAACRFNNVTEDKSPLEHHHHHH”, the entry is “not soluble”; as for “MVIMAGKAVRTEQVSATRQLILTTAERLFAEHGVYAVSNRQVSEAAGQGNNAAVGYHFGTKTDLVRAIAQRHSERVEELRARQLAALGDSPDLRDWVDCLVRPQFDHLAALGSPTWYARFCAQVMTDPALRQIMTEESRASVSLRAIIVGRNRCMPALPDEVRAERGDMARHLIVHTAEERERALAENRPTPRASWQDAADGLVDAIVGMWLAPVTPRGGG”, “not soluble”; as for “MVIRRTYMARDNTYYLDEALYISAQAPTGIELSFIGGGGPGSGGWGLSDGYPRGTSPTKNDIARVISTRRVLTEEFQIIEKDYSDKYAHETNQLPETINALKAQIKAEASSTNGAASPFVTEQQILSSRISQIRDGYLQILPDANNYFGVPAFYKRGDSMMSRFLDPGFFAATTGQELGVEWATRLQKSWEGTYRLHLEAQKHQALADELRALASQVDQEELSQQPLDLLQVIARRTAQIHTERQIHFDCLPNVLQHELGQTVIDDTLTLVQTFSTYLATAAALVQAKQSQIPPYQDQNPRINSPLSKPQLEGLLHLVDEQRLRRAGPRWQEYHLALALTESIRFLGVYAGATQNLMQRAAEVENLQAQLAAQEEAARQQAEAERLAAEAERQRQEALRRSVSYINEARLAVSTPAVIPIGATTFAVAEAAYSALAESIAAALTRLVATTVPSVAVGTLAMAWPSTLGNSERQYLISTPLDSLSPAGGPDLAALAASSTSIDLPYLLAGVENENELDLYVVPSGKPVAVRAATFDSERQVYSLALDNPQRILTWTPASAPGGDEGNSTSLPLVPPGTVVYTGSSLNPVVTEQEGYPALDLLDQERLIITFPMDSGLPPILVVFKSPRYEAGTSTGHGAQVSDTWRKEAASLEGAPIPAQIAELLKSREFRNFDAFRRQFWKAVANDPELSKQFDEMSLSRMRKNGYSPIVDFPDSHLSQKTFILHHVIPISEGGGVYDMDNIRIVTPLSHNSIHYGTKPLEHHHHHH”, “not soluble”.
As for “MVKIVKAQFHTAGKLYDFGAGDLDLKPGDKIIVETERGRSIATVVTPPREYEEAHVPEGLKTAIRIAEPSDLASAARNDAREQEAHAFCLRKIKERGMEMKLVKVEYLFDGSKAIFYFTADGRVDFRELVKDLAHQFHTRIEMRQIGVRDESKMIGGIGICGRELCCSSFLREFEPVSVKMAKEQNLALNPTKISGQCGRLLCCLGYEYETYCSLKKCLPKCGKVVKCGSTEGEVIKQNIIEGTVFVKTDDDRIVELKGESIKPEDISERPKSPRREGGTREREKEPQSSSDNQRREKPRDREQKPGDDGEQRRERDTKKNQDQQRGERGNRDRRGGKGRDKDKKEPKLEHHHHHH”, the entry is “soluble”; as for “MVLFTGKTVEEAIETGLQELGLSRLKAHIKVISKEKKGFLGFGKKPAQVDIEGISDKTVYKADKKATRGVPEDINRQNTPAVNSADVEPEEIKATQRLEAEDTKVVPLMSEDSPAQTPSNLAETVTETKAQQPSIPVEESEVPQDAGNDGFSKDIEKAAQEVSDYVTKIIYEMDIEATVETSNNRRQINLQIETPEAGRVIGYHGKVLKSLQLLAQNFLHDRYSKNFSVSLNVHDYVEHRTETLIDFTQKVAKRVLESGQDYTMDPMSNSERKIVHKTVSSIEGVDSYSEGNDPNRYVVVSLQR”, “not soluble”.
Consider “MVLSCRVVDCGGLKLKENQTLLLLVSTIHNSSEVGKLSIDAEEKRSKEWLEMPCAEGMLSLKLTLWQDLLKGINSVFHGQVRVDVDENWKSGPAKWFYLRSKANEDGEGGEDGGDIGDATVKVTYQIDHILRMQVYKPLLDLLFLAGDVQPLTASLVAVIEALPKVELGPVSRSLVELMAQSDRIRPVLSSLYVNSILKCQDENTLFRGQSLSGKMLFEILTTYGKMYLITTLKPVVDKIYKERKNCEVDPARVAVGASLEKNRNNLLVYFQMLFERVTTSSTNCPHLIKQLLYDLRNVVGTHSSRSGVQRLAVSSFVIMRFFAAAILNPKAFEIRKDQPDLRVSRTLLLLSKLLQRLSNCSVSEGPLSSKEIWLNGVFETVTSEQHKSVMASFLDNISLVGDRSEPQKCTVFKFGNLQQVDRSRLAWKKVLHYKKRYVQLTNTHLIWQKDVQCAPKGTVPLSDIKFVNVDNKNIITIVCETMQLQFEAPGGVEATDWLNAIERQRNRAAHEIAETPGEHFFVDAERHVDKIHTLLYKYRETMIEWRDQLQSNVELDEKTAPELLKASYVVEEERQSHKDSLIATLCSTIDVTDAIQLAHTEYEKENKVSRRIDAIITAKKRQKSFSVK”, for which the “soluble on expression in E. coli” value is reported as “not soluble”.
Under “MVLSVVVVGKPRCRSIAVAARERLHRYGEYPMSSNNASGKVVSVDEQAFENAGEQAADEDGFPVVDETPEFEAAVEQETQAKVDANHPDGIADTSEDRIHGVTLEQEERIRAREAELERISAQAELGTQDGREQRTRDIAAKRSAVRRAEFQTRAASVDPMADPERDDPRAELTQEQLAAVNKQSMRLAEKLDGWSRAAIGRRLGEAVVGGKDVTSAVVGVFEELQTAPGTVIPIGKLEDVNRKEVSIEGTVTRLWKPSSAAISQVGLIEDESGKTKFTSWVASEQPWIEEGEHVRIHGAAKNWYNGRVSVALTGWSTVHFPERGRWWEALEHHHHHH” stands “not soluble”.
As for “MVMTVRVIAPDKTVWDAPAEEVILPSTTGQLGILSNHAPLLTALETGVMRVRQDREWVAIALMGGFAEVENNEVTILVNGAERGDTIDLEKAKAEFAAAQAALAQAEQGESKQAKIQATQAFRRARARLQAAGGVVEI”, the entry is “soluble”; as for “MVNLTELDRMLTETRGLLSQVRSGKGGASQEAVEGQGSAADGRIRVVAGAGGEITSIELDPRVMRMSSQELAEHLVEAVNQALRELRAQVTTAETAIAPEVLAQRLAEVQDQGLRQMTMFVEGLRDAMTQLGQRADRSG”, “not soluble”.
